Measured values published in paper PMC3937055.

Target: caveolin, endogenous in mouse hippocampal primary neurons (mouse (endogenous in hippocampal primary neurons)) (UniProt P49817)
Experiment: co-IP; competition: synthetic Tat peptides incubated with living hippocampal primary neurons for 45 min before lysis; anti-caveolin immunoprecipitate blotted for mGlu1 receptor, band intensity normalised to control (n=3)

UniProt P49817, sequence (P49817 whole entry): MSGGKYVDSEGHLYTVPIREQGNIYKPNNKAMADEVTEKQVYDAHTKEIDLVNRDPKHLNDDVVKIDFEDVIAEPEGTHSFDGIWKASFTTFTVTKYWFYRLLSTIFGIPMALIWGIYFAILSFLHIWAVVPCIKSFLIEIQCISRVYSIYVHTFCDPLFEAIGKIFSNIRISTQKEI

“Tat-blocking peptide (Tat peptide fused with caveolin binding site of mGlu1α receptor)” was tested, and the mGlu1α receptor co-precipitated with caveolin in the presence of the peptide, % of control was 73.3 % of control.
